# Columns and labels:
# [1] = system: T7 gene 2.5 protein (Bacteriophage T7); conditions: renaturation t1/2 by agarose gel annealing assay; 10 mM MgCl2, 50 mM NaCl, pH 7.5, 37 C, no ATP; none >30,000 min
# [2] = system: RecA protein (Escherichia coli); conditions: renaturation t1/2 with about 500 uM ATP; little renaturation without ATP; 10 mM MgCl2, 50 mM NaCl, 37 C
# [3] = system: T4 gene 32 protein (Bacteriophage T4); conditions: renaturation t1/2; about 1% annealed after 60 min; 10 mM MgCl2, 50 mM NaCl, 37 C
substance,measurement,setting,value
167-nt fragment (primer-extended to XmnI site) plus circular M13 mGP1-2 ssDNA,activity,[1],1 min
same,activity,[2],60 min
same,activity,[3],3000 min

# From patent publication US5534407
